Target: the molecule itself
Test: SEC; gel filtration of the single purified protein, Superdex 75 16/60 calibrated with molecular weight standards; 50 mM Tris-HCl pH 7.5, 150 mM NaCl

Row | Protein | stoichiometry N
1 | human Siah1 without the RING domain (amino acids 91-282) (domain or fragment, UniProt Q8IUQ4 91-282, looked up, human Siah1 without the RING domain, amino acids 91-282 of UniProt Q8IUQ4 (the results say residues 90-282); theoretical mass of a monomer 21,897 Da; The 15N-labelled form was used in the NMR experiment and the unlabelled form in gel filtration; it says only 'a similar protocol to that for PEG3-SCAN'; also called E3 ubiquitin-protein ligase Siah1; 15N-labeled Siah1; source: E. coli, purified by a …) ANSVLFPCKYASSGCEITLPHTEKADHEELCEFRPYSCPCPGASCKWQGSLDAVMPHLMHQHKSITTLQGEDIVFLATDINLPGAVDWVMMQSCFGFHFMLVLEKQEKYDGHQQFFAIVQLIGTRKQAENFAYRLELNGHRRRLTWEATPRSIHEGIATAIMNSDCLVFDTSIAQLFAENGNLGINVTISMC | 2
2 | SCAN domain of human paternally expressed gene 3 protein (PEG3), amino acids 40-130 (domain or fragment, three non-native residues (Gly-His-Met) left at the N-terminus after TEV digestion; SCAN domain of human PEG3, amino acids 40-130 of UniProt Q9GZU2; theoretical mass of the construct 11,434 Da; Homodimer by gel filtration and in the crystal; The gene was synthetic (GenScript), in a modified pET15b vector; also called PEG3-SCAN; PEG3-SCAN domain; source: E. coli Bl21 (DE3) Gold, purified (HisTrap, …)) GHMTDSEFFHQRFRNLIYVEFVGPRKTLIKLRNLCLDWLQPETRTKEEIIELLVLEQYLTIIPEKLKPWVRAKKPENCEKLVTLLENYKEMYQP | 2

Reference: PMC3720700, “Structure of the SCAN Domain of Human Paternally Expressed Gene 3 Protein” (PLoS ONE, 2013)
